Results: patent US20150374794A1 (Novo Nordisk, published 2015)
Numbered stars: 1 amine (or outer) side, 2 acyl side, 3 side chain; on linkers, the order of the positions; unused ones are H or OH. Square brackets hold non-standard residues; d marks the D form. Side chains are listed from the residue outwards. Ends that are not written are not given here. * marks the point of attachment. C18 diacid = O=C(O)CCCCCCCCCCCCCCCCC(=O)*; γGlu = O=C(O)[C@H](CCC(=O)[*:2])N[*:1]; AEEA = NCCOCCOCC(=O)O; Aib = CC(C)(N)C(=O)O

Experiments:
human glucagon receptor [1] = target: T1, human glucagon receptor (human, UniProt P47871 26-477); test: displacement of 125I-glucagon, membranes with human glucagon receptor, SPA
T1 construct: whole, on cells; the potency assay used whole cells (clone pLJ6'-4-25); also called GlucR; hGCGR
Description: (§1) The receptor binding of each compound to the human glucagon receptor was measured in a displacement binding assay. […] Each derivative was added in a series of concentrations to isolated membranes containing the human glucagon receptor and displacement of the labelled ligand is monitored. The receptor binding was reported as the concentration at which half of the labelled ligand is displaced from the receptor, the IC₅₀ value.

human glucagon receptor [2] = target: T1, human glucagon receptor; test: cell-based or functional assay
human GLP-1 receptor [3] = target: T2, human GLP-1 receptor (human, UniProt P43220 24-463); test: cell-based or functional assay
human GLP-1 receptor [4] = target: T2, human GLP-1 receptor; test: displacement of 125I-GLP-1(7-36)NH2, membranes with human GLP-1R, SPA
Description: as §1, with “human GLP-1” for “human glucagon”, “ligand was” for “ligand is”

T1 sequence (P47871 26-477): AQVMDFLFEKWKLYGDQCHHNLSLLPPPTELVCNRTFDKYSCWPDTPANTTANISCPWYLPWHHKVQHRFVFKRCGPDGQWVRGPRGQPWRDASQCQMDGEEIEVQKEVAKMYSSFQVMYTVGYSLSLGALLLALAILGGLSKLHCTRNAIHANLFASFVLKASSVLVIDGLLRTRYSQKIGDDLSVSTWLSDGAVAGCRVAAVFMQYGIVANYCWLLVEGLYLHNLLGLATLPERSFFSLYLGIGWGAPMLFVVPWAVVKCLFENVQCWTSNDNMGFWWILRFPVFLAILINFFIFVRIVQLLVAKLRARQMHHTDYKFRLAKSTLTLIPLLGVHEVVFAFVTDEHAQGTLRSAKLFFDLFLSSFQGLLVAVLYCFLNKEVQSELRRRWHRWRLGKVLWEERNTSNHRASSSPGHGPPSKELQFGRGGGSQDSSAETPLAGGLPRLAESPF

B1: N^ε28-[(4S)-4-carboxy-4-[[(4S)-4-carboxy-4-[[2-[2-[2-[[2-[2-[2-[[(4S)-4-carboxy-4-(17-carboxyheptadecanoylamino)butanoyl]amino]ethoxy]ethoxy]acetyl]amino]ethoxy … (peptide)
peptide: H[Aib]QGTFTSDLSKYLD[Aib]RRAREFVQWLLK([γGlu-γGlu-AEEA-AEEA-γGlu-C18 diacid])T-NH2
modifications: N-terminus assumed
SMILES: CC(C)C[C@H](NC(=O)[C@H](Cc1c[nH]c2ccccc12)NC(=O)[C@H](CCC(N)=O)NC(=O)[C@@H](NC(=O)[C@H](Cc1ccccc1)NC(=O)[C@H](CCC(=O)O)NC(=O)[C@H](CCCNC(=N)N)NC(=O)[C@H](C)NC(=O)[C@H](CCCNC(=N)N)NC(=O)[C@H](CCCNC(=N)N)NC(=O)C(C)(C)NC(=O)[C@H](CC(=O)O)NC(=O)[C@H](CC(C)C)NC(=O)[C@H](Cc1ccc(O)cc1)NC(=O)[C@H](CCCCN)NC(=O)[C@H](CO)NC(=O)[C@H](CC(C)C)NC(=O)[C@H](CC(=O)O)NC(=O)[C@H](CO)NC(=O)[C@@H](NC(=O)[C@H](Cc1ccccc1)NC(=O)[C@@H](NC(=O)CNC(=O)[C@H](CCC(N)=O)NC(=O)C(C)(C)NC(=O)[C@@H](N)Cc1c[nH]cn1)[C@@H](C)O)[C@@H](C)O)C(C)C)C(=O)N[C@@H](CC(C)C)C(=O)N[C@@H](CCCCNC(=O)CC[C@H](NC(=O)CC[C@H](NC(=O)COCCOCCNC(=O)COCCOCCNC(=O)CC[C@H](NC(=O)CCCCCCCCCCCCCCCCC(=O)O)C(=O)O)C(=O)O)C(=O)O)C(=O)N[C@H](C(N)=O)[C@@H](C)O
With B1 as the binder, how does the IC50 (human glucagon receptor [1]) read?
Its IC50 is 1400 pM.

And the “EC50 GlucR, CRE luciferase reporter gene assay in BHK cells” value (human glucagon receptor [2])?
The value was 4 pM.

What about the “EC50 GLP-1R, CRE luciferase reporter gene assay in BHK cells” value (human GLP-1 receptor [3]) of the same binder?
The value was 6 pM.

And the IC50 (human GLP-1 receptor [4])?
Its IC50 is 700 pM.
